The target of series [1] is T1, GPBP1 eAT-hook (eAT) (Homo sapiens, UniProt D4PHA4 38-80).
T1 chain: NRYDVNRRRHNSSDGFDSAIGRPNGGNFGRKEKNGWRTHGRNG
Put plainly: MST.

Series [2] concerns the target T2, GPBP1 eATmut (Homo sapiens, UniProt D4PHA4 38-80, R59D).
T2 chain: T1 chain with R22D
Put plainly: MST.

In series [3] the target is T3, PTOV1 eATmut (Homo sapiens, UniProt Q86YD1 1-43, R20D;R22D).
T3 chain: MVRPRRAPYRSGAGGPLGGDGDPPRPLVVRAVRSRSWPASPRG
Kind of series: MST.

Series [4] deals with T1, GPBP1 eAT-hook (eAT). Kind of series: MST.
The target in series [5] is T3, PTOV1 eATmut. Put plainly: EMSA.
The target in series [6] is T1, GPBP1 eAT-hook (eAT). Put plainly: MST competition.

Residue numbers refer to the chain shown, from its start.

B1: rDNA En (MST) (dsDNA)
DNA 1: TCTTTTTTTTTTTTTTTCTTTTTTCCTCC
DNA 2: GGAGGAAAAAAGAAAAAAAAAAAAAAAGA
Consider B1, for which, in series [1], the “apparent K (half saturation)” value worked out at 7 ± 1.7 µM. Besides, the binding result in series [2] and in series [3] was “no binding” each time.

As to GAGAAACCGUGUAAACAAAACAUAACUGAGAGG (structured_RNA) [RNA2], the “apparent K (half saturation)” value in series [4] was determined as 938 ± 92 nM.

B2: rDNA En (gel shift) (dsDNA)
DNA 1: TGGATCTTTTTTTTTTTTTTTCTTTTTTCCTCCA
DNA 2: TGGAGGAAAAAAGAAAAAAAAAAAAAAAGATCCA
With B2, the binding result in series [5] was “no binding”. As for AGUUCCAUGAUGUUUUCAAACUCUAUUACCUACAUUAUUUGAAC (structured_RNA) [RNA1], the figures for the “apparent K (half saturation)” value in series [4] and in series [6] were 378 ± 18 nM and 373 ± 19 nM, respectively.

Values taken from publication PMC4615771.
